Data reported in US20150086555A1.

B1: TCN-528 (5087_P17) (antibody, V domains shown)
VH: QVQLVQSGSEVKKPGASVKVSCKASGYTFTNYDINWIRQAPGQGLEWMGWINPNSGTTGSAQRFQGRVTITVDTSITTVYMELSSLRSDDTAIYYCARGRELLRLQHFLTDSQSERRDCFDPWGQGTLVTVSS
VL: DIQMTQSPSSLSASVGDRVTITCRANQDIGIYLNWYQQNPGKVPKLLLHGASSLQGGVPSRFSASGSGTDFTLTIHSLQPEDLATYYCQQSRRLPYTFGQGTRVELK
B2: TCN-522 (3212_I12) (antibody, V domains shown)
VH: QVQLQQWGAGLLKPSETLSLTCTVSGGSLTDYSWNWIRQPPGKGLEWIGDTLHNGYTNYNPSLRGRVSISIDTSKNQVSLRLTSVTAADTALYYCARGSGGYGGFDYFGKLRTWDFWGQGTLVTVSS
VL: DIQLTQSPSSLSASVGDRVTITCRASQGIRNDLGWYQQKPGNAPKRLIFGASSLQSGVPSRFSGSGSGTEFTLTISSLQPEDFATYYCLQHNSYPYTFGQGTKLEIK
B3: TCN-527 (5086_C06) (antibody, V domains shown)
VH: QVQLQESGPGLVKPSETLSLNCAVSGGSISNYYWSWIRQPPGKGLEWIGYISYNGRPKYNPSLTSRVTISVDTSKDQFSLELRSVTAADTALYYCARETRFGELLSPYDAFEIWGQGTMVTVSS
VL: DIQMTQSPSSLSASVGDRVTMTCRASQNIRSYLNWYQQRPGTAPKLLIYAASTLHSGVPSRFSGGGSGTDFTLTINNLQPEDFASYYCQQSYDNPQTFGQGTKVEIK
B4: TCN-523 (5248_A17) (antibody, V domains shown)
VH: QVQLVQSGAEVKKPGSSVKVSCKASGGSFSNYAFSWVRQAPGQGLEWMGGTIPLLGTTNYAQKFQGRVTISADQFTSTAYMELGSLRSEDTAVYYCTRRKMTTAFDSWGQGTLVTVSS
VL: QPVLTQPPSASASLGASVTLTCTLSSAYSNYKVDWYQQRPGKGPRFVMRVGTGGIVGSKGDGIPDRFSVLGSGLNRYLTIKNIQEEDESDYHCGADHGSGSNFVSPYVFGGGTKLTVL
B5: TCN-504 (3251_K17) (antibody, V domains shown)
VH: QVQLQESGPGLVKPSETLSLTCAVSGVSISNIDFYWGWIRQPPGKGLEWIGNIYYTGITFYNPSLSSRVAISIDTSKNQFSLTLTSVTAADTAMYYCARHYGDSEAINDAFDIWGQGTMLTVSS
VL: EIVMTQSPATLSVSPGERATLSCRASQSVGNSLAWYQQRPGQAPRLLIYGASTRATGIPPRFSGSGSGTEFTLTISSLQTEDFAVYYCQQYINWRPLSFGGGTKVEIK

biological target: recombinant homotrimeric HA A/swine/Ontario/01911-2/99 H4N6 (Influenza A virus A/Swine/Ontario/01911-2/99 (H4N6)); assay: protein microarray, purified IgG, trimeric HA; settings: remark: other sources report otherwise

Binder	Trimeric HA Binding: RLU [RLU]
B1	9490
B2	73
B3	11100
B4	85

biological target: recombinant homotrimeric HA A/duck/Yangzhou/02/05 H8N4 (Influenza A virus A/duck/Yangzhou/02/2005(H8N4)); assay: protein microarray, purified IgG, trimeric HA; settings: remark: other sources report otherwise

Binder	Trimeric HA Binding: RLU [RLU]
B1	24100
B3	26000

biological target: recombinant soluble homotrimeric HA, A/northern shoveler/California/HKWF115/07 H6N4 (Influenza A virus A/northern shoveler/California/HKWF115/2007(H6N1)); assay: microarray, transfection SN IgG, trimeric HA; settings: remark: other sources report otherwise

Binder	Trimeric HA Binding: RLU [RLU]
B4	46900

biological target: recombinant soluble homotrimeric HA, A/Japan/305/57 H2N2 (Influenza A virus A/Japan/305/1957(H2N2)); assay: microarray, transfection SN IgG, trimeric HA; settings: remark: other sources report otherwise

Binder	Trimeric HA Binding: RLU [RLU]
B5	23300
B4	22000

biological target: recombinant soluble homotrimeric HA, A/chicken/Vietnam/NCVD-016/08 H5N1 (Influenza A virus A/chicken/Vietnam/NCVD-016/2008(H5N1)); assay: microarray, transfection SN IgG, trimeric HA; settings: remark: other sources report otherwise

Binder	Trimeric HA Binding: RLU [RLU]
B5	34200
B4	51300

biological target: recombinant soluble homotrimeric HA, A/Vietnam/1203/04 H5N1 (Influenza A virus A/VietNam/1203/2004(H5N1)); assay: microarray, transfection SN IgG, trimeric HA; settings: remark: other sources report otherwise

Binder	Trimeric HA Binding: RLU [RLU]
B5	21500
B4	27800

biological target: recombinant soluble homotrimeric HA, A/South Carolina/1/18 H1N1 (Influenza A virus A/South Carolina/1/18 (H1N1)); assay: microarray, transfection SN IgG, trimeric HA; settings: remark: other sources report otherwise

Binder	Trimeric HA Binding: RLU [RLU]
B5	32000
B4	52000

biological target: recombinant soluble homotrimeric HA, A/Indonesia/5/05 H5N1 (Influenza A virus A/Indonesia/5/2005(H5N1)); assay: microarray, transfection SN IgG, trimeric HA; settings: remark: other sources report otherwise

Binder	Trimeric HA Binding: RLU [RLU]
B5	18500
B4	55000

biological target: recombinant soluble homotrimeric HA, A/Wisconsin/67/05 H3N2 (Influenza A virus A/Wisconsin/67/2005(H3N2)); assay: microarray, transfection SN IgG, trimeric HA; settings: remark: other sources report otherwise

Binder	Trimeric HA Binding: RLU [RLU]
B5	38100

biological target: recombinant soluble homotrimeric HA, A/Netherlands/219/03 H7N7 (Influenza A virus A/Netherlands/219/03(H7N7)); assay: microarray, transfection SN IgG, trimeric HA; settings: remark: other sources report otherwise

Binder	Trimeric HA Binding: RLU [RLU]
B5	30600

biological target: recombinant soluble homotrimeric HA, A/Solomon Islands/3/06 H1N1 (Influenza A virus A/Solomon Islands/3/2006(H1N1)); assay: microarray, transfection SN IgG, trimeric HA; settings: remark: other sources report otherwise

Binder	Trimeric HA Binding: RLU [RLU]
B5	30100
B4	37600

biological target: recombinant soluble homotrimeric HA, A/Hong Kong/156/97 H5N1 (Influenza A virus A/Hong Kong/156/97 (H5N1)); assay: microarray, transfection SN IgG, trimeric HA; settings: remark: other sources report otherwise

Binder	Trimeric HA Binding: RLU [RLU]
B5	26600
B4	28400

biological target: recombinant soluble homotrimeric HA, A/California/4/09 H1N1 (Influenza A virus A/California/04/2009(H1N1)); assay: microarray, transfection SN IgG, trimeric HA; settings: remark: other sources report otherwise

Binder	Trimeric HA Binding: RLU [RLU]
B5	17600
B4	34400

biological target: recombinant soluble homotrimeric HA, A/Egypt/3300-NAMRU3/08 H5N1 (Influenza A virus A/Egypt/3300-NAMRU3/2008(H5N1)); assay: microarray, transfection SN IgG, trimeric HA; settings: remark: other sources report otherwise

Binder	Trimeric HA Binding: RLU [RLU]
B5	20600
B4	35500

biological target: recombinant soluble homotrimeric HA, A/Anhui/1/05 H5N1 (Influenza A virus A/Anhui/1/2005(H5N1)); assay: microarray, transfection SN IgG, trimeric HA; settings: remark: other sources report otherwise

Binder	Trimeric HA Binding: RLU [RLU]
B5	37200
B4	6080

biological target: recombinant soluble homotrimeric HA, A/duck/Yangzhou/02/05 H8N4 (Influenza A virus A/duck/Yangzhou/02/2005(H8N4)); assay: microarray, transfection SN IgG, trimeric HA; settings: remark: other sources report otherwise

Binder	Trimeric HA Binding: RLU [RLU]
B5	35100

biological target: recombinant soluble homotrimeric HA of A/chicken/Vietnam/NCVD-016/08 (H5N1) (Influenza A virus A/chicken/Vietnam/NCVD-016/2008(H5N1)); assay: trimeric HA microarray, transfection supernatant set 2; settings: remark: other sources report otherwise

Binder	Trimeric HA Binding: RLU [RLU]
B1	22600
B2	49300
B5	27300
B3	20100
B4	17600

biological target: recombinant soluble homotrimeric HA of A/Vietnam/1203/04 (H5N1) (Influenza A virus A/VietNam/1203/2004(H5N1)); assay: as above; settings: remark: other sources report otherwise

Binder	Trimeric HA Binding: RLU [RLU]
B1	23300
B2	48200
B5	15000
B3	20600
B4	26200

biological target: recombinant soluble homotrimeric HA of A/Japan/305/57 (H2N2) (Influenza A virus A/Japan/305/1957(H2N2)); assay: as above; settings: remark: other sources report otherwise

Binder	Trimeric HA Binding: RLU [RLU]
B1	23100
B2	11900
B5	22600
B3	20800
B4	882

biological target: recombinant soluble homotrimeric HA of A/Solomon Islands/3/06 (H1N1) (Influenza A virus A/Solomon Islands/3/2006(H1N1)); assay: as above; settings: remark: other sources report otherwise

Binder	Trimeric HA Binding: RLU [RLU]
B1	26900
B2	17300
B5	31400
B3	19700
B4	3270

biological target: recombinant soluble homotrimeric HA of A/Netherlands/219/03 (H7N7) (Influenza A virus A/Netherlands/219/03(H7N7)); assay: as above; settings: remark: other sources report otherwise

Binder	Trimeric HA Binding: RLU [RLU]
B1	47200
B2	2170
B5	19300
B3	49100
B4	407

biological target: recombinant soluble homotrimeric HA of A/South Carolina/1/18 (H1N1) (Influenza A virus A/South Carolina/1/18 (H1N1)); assay: as above; settings: remark: other sources report otherwise

Binder	Trimeric HA Binding: RLU [RLU]
B1	25200
B2	39600
B5	24700
B3	48100
B4	25500

biological target: recombinant soluble homotrimeric HA of A/Indonesia/5/05 (H5N1) (Influenza A virus A/Indonesia/5/2005(H5N1)); assay: as above; settings: remark: other sources report otherwise

Binder	Trimeric HA Binding: RLU [RLU]
B1	39700
B2	50500
B5	19700
B3	23400
B4	24500

biological target: T1, recombinant soluble homotrimeric HA of A/Egypt/3300-NAMRU3/08 (H5N1) (Influenza A virus A/Egypt/3300-NAMRU3/2008(H5N1)); assay: as above; settings: remark: other sources report otherwise

Binder	Trimeric HA Binding: RLU [RLU]
B1	36800
B2	55400
B5	21400
B3	23600
B4	30700

biological target: recombinant soluble homotrimeric HA of A/California/4/09 (H1N1) (Influenza A virus A/California/04/2009(H1N1)); assay: as above; settings: remark: other sources report otherwise

Binder	Trimeric HA Binding: RLU [RLU]
B1	44600
B2	37500
B5	15600
B3	21500
B4	18700

biological target: recombinant soluble homotrimeric HA of A/Anhui/1/05 (H5N1) (Influenza A virus A/Anhui/1/2005(H5N1)); assay: as above; settings: remark: other sources report otherwise

Binder	Trimeric HA Binding: RLU [RLU]
B1	21200
B2	2030
B5	31000
B3	15200
B4	139

biological target: T1, recombinant soluble homotrimeric HA of …; assay: HA microarray, BCC supernatant; settings: remark: other sources report otherwise

Binder	Trimeric HA Binding: RLU [RLU]
B4	36500
